Publication PMC6101539 (Nucleic Acids Research, 2018)
Positions count from the first letter of the chain named. Read-outs that look alike come from different tables or passages of the source.

T1: RarA;SsbA (Bacillus subtilis;Bacillus subtilis, UniProt O34528;P37455 1-421;1-172, |)
T1 sequence 1: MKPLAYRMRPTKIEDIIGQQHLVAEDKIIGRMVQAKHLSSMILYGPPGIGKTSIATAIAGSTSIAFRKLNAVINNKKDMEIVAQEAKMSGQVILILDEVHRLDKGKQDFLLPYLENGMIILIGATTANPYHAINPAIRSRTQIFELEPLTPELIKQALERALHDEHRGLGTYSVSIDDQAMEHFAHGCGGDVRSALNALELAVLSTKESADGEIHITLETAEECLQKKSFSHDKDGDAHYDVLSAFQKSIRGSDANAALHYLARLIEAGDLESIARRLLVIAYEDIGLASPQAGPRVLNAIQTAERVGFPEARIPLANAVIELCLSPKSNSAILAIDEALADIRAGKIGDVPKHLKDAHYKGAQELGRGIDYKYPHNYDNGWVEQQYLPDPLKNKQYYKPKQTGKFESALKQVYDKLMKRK
T1 sequence 2: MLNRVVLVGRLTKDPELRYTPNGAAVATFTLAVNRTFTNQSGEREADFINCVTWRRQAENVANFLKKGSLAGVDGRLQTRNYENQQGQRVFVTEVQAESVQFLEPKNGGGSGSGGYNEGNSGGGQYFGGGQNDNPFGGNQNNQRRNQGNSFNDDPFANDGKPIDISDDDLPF

T2: RarA K51A;SsbA (Bacillus subtilis;Bacillus subtilis, UniProt O34528;P37455 1-421;1-172, K51A|)
T2 sequence 1: T1 sequence 1 with K51A
T2 sequence 2: T1 sequence 2

T3: SsbB (Bacillus subtilis, UniProt C0SPB6 1-113)
T3 sequence: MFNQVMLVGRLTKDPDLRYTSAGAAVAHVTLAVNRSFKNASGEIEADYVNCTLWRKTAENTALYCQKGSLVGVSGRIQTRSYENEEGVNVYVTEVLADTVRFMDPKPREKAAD

T4: RarA;SsbBA chimera (SsbB*) (Bacillus subtilis;Bacillus subtilis, UniProt O34528;C0SPB6 1-421;1-113+P37455:164-172, |internal_change)
T4 sequence 1: T1 sequence 1
T4 sequence 2: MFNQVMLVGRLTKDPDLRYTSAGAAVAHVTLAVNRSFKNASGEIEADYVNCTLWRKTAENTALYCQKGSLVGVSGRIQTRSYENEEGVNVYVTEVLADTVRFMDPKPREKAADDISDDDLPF

T5: RarA (Bacillus subtilis, UniProt O34528 1-421)
T5 sequence: T1 sequence 1

T6: SsbA (Bacillus subtilis, UniProt P37455 1-172)
T6 sequence: T1 sequence 2

T7: RarA;PriA (Bacillus subtilis;Bacillus subtilis, UniProt O34528;P94461 1-421;1-805, |)
T7 sequence 1: T1 sequence 1
T7 sequence 2: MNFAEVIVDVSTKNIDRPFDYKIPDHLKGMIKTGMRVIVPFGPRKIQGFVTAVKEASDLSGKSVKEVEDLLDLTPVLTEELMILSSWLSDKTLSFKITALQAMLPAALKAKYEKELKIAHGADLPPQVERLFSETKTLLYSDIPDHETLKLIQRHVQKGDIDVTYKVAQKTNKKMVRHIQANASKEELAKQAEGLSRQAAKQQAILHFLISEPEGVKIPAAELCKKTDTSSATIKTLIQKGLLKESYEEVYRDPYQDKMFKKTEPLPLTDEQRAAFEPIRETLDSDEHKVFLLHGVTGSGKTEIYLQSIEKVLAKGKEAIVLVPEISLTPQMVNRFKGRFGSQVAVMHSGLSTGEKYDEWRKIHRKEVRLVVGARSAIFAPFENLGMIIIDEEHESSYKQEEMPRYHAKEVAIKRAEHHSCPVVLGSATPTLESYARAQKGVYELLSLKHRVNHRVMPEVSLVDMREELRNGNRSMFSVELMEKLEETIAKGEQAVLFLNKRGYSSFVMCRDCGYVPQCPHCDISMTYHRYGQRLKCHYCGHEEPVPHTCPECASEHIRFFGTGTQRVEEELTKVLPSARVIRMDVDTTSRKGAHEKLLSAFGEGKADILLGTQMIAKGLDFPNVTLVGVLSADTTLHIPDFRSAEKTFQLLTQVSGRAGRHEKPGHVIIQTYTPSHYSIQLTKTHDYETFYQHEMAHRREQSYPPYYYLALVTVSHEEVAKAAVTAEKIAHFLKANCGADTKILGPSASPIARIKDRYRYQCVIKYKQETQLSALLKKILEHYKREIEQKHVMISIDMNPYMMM

T8: PriA (Bacillus subtilis, UniProt P94461 1-805)
T8 sequence: T7 sequence 2

T9: Bacillus subtilis RarA K51A (Walker A motif mutant) (B. subtilis, UniProt O34528 1-421, K51A)
T9 sequence (looked up): T1 sequence 1 with K51A

T10: Bacillus subtilis RarA (replication associated recombination protein A) (B. subtilis, UniProt O34528 1-421)
T10 sequence (looked up): T1 sequence 1

B1: 91-nt ssDNA (F1) (ssDNA)
DNA: TATAAAAAAAGCCAAGCTTGCATGCCTGCAGGTCGACTCTAGAGGATCCCCGGGTACCGAGCTCGAATTCACTGGCCGTCGTTTTACAACG
B2: fork DNA (F1/F2) (dsDNA)
DNA 1: B1 DNA
DNA 2: AATTCGTTGTAAAACGACGGCCAGTGAATTCGAGCTCGGTACCCGCCAGCCACAGTCAGACACACACACACTACACACAAAAAAAAAAA
B3: replicated fork (F1/F2/F3) (dsDNA)
DNA 1: B1 DNA
DNA 2: B2 DNA 2
DNA 3: TTTTTTTTTTTGTGTGTAGTGTGTGTGTGTCTGACTGTGGCTGG
B4: Bacillus subtilis SsbA (single stranded binding protein A) (natural protein, B. subtilis, UniProt P37455 1-172, looked up)
chain: T1 sequence 2
B5: SsbBA chimera (SsbB with the last 9 terminal acidic residues of SsbA) (other, B. subtilis, UniProt C0SPB6 1-113, looked up)
chain: T4 sequence 2
B6: dsDNA (100U/100D) (dsDNA)
DNA 1: GGGCGAATTGGGCCCGACGTCGCATGCTCCTCTAGACTCGAGGAATTCGGTACCCCGGGTTCGAAATCGATAAGCTTACAGTCTCCATTTAAAGGACAAG
DNA 2: CTTGTCCTTTAAATGGAGACTGTAAGCTTATCGATTTCGAACCCGGGGTACCGAATTCCTCGAGTCTAGAGGAGCATGCGACGTCGGGCCCAATTCGCCC

Columns and labels:
RarA;SsbA = target: T1, RarA;SsbA; assay: EMSA
RarA K51A;SsbA = target: T2, RarA K51A;SsbA; assay: EMSA
SsbB = target: T3, SsbB; assay: EMSA
[1] = target: T4, RarA;SsbBA chimera (SsbB*); assay: EMSA
RarA = target: T5, RarA; assay: EMSA
SsbA [2] = target: T6, SsbA; assay: EMSA
RarA;PriA = target: T7, RarA;PriA; assay: EMSA
PriA = target: T8, PriA; assay: EMSA
SsbA [3] = target: T6, SsbA; assay: EMSA; remark: listed apart in the source
[4] = target: T9, Bacillus subtilis RarA K51A (Walker A …); assay: native gel or EMSA
[5] = target: T10, Bacillus subtilis RarA (replication …); assay: native gel or EMSA

binding result [5] | Binder | binding result (RarA;SsbA) | Kd (RarA) [nM] | also measured
 | B1 | binds | ~12 | binding result (RarA K51A;SsbA): binds; Kd (SsbB): ~6 nM; binding result [1]: binds
 | B2 | binds | ~12 | binding result (SsbA [2]): binds
 | B3 | binds | ~19 | binding result (RarA;PriA): binds; Kd (PriA): ~3 nM; binding result (SsbA [3]): binds
binds | B4 |  |  | binding result [4]: binds
binds | B5 |  |  | 
 | B6 |  | ~37 | 
